Laboratory results: paper PMC3524506

Test system: OmpR-P-His6 (phosphorylated) (Yersinia enterocolitica O9 Ye9?)
Experiment: EMSA
Details: 40 mM Tris-HCl pH 8.0, 100 mM KCl, 10 mM MgCl2, 5% glycerol, room temperature 30 min, scale: fold lower minimum binding amount than non-phosphorylated OmpR

## inv promoter fragment 553 bp
  binding signal: 3
